B1: Twister Ribozyme (parent)
chain: AACACUGCCAAUGCCGGUCCCAAGCCCGGAUAAAAGUGGAGGGGGCGG

Variants of: B1
Assay: self-cleavage, relative activity (ratio to wild type); higher = more cleavage; co-transcriptional

AACACUGCCAAUGCUGAUCCCAAGCCCGGAUAAAAGUGGAGGGGGCGG and AACACUGCCAAUGCUGUUCCCAAGCCCGGAUAAAAGUGGAGGGGGCGG are the same in self-cleavage: 0.204 for the first, 0.204 for the second.

Compared with AACACUGCCAAUGCUGGUCCCAAGCCCUGAUAAAAGUGGAGGGGGCGG, AACACUGCCAAUGCUGGUCCCAAGCCCAGAUAAAAGUGGAGGGGGCGG is higher in self-cleavage: 0.973 for the first, 1.14 for the second.

Going from AACACUGCCAAUGCCAGUCCCAAGCCCGGAUAAAAGUGGAGGGGGAGG to AACACUGCCAAUGCCAGUCCCAAGCCCGGAUAAAAGUGGAGGGGGUGG, the self-cleavage falls from 0.994 to 0.895.

Going from AACACUGCCAAUGCCAGUCCUAAGCCCGGAUAAAAGUGGAGGGGGCGG to AACACUGCCAAUGCCAGUCCGAAGCCCGGAUAAAAGUGGAGGGGGCGG, the self-cleavage rises from 0.0697 to 0.0789.

Going from AACACUGCCAAUGCCAGUCCCAAGCCCGGAUAAAAGUGGAGGGUGCGG to AACACUGCCAAUGCCAGUCCCAAGCCCGGAUAAAAGUGGAGGGAGCGG, the self-cleavage falls from 1 to 0.928.

Going from AACACUGCCAAUGCUGGUCCCAAGCCCGGAUAAAAGUGGAGGUGGCGG to AACACUGCCAAUGCCAGUCCCAAGCCCGGAUAAAAGUUGAGGGGGCGG, the self-cleavage rises from 0.277 to 0.656.

Compared with AACACUGCCAAUGCCAGUGCCAAGCCCGGAUAAAAGUGGAGGGGGCGG, AACACUGCCAAUGCCAGUCCCAAGCCCGGAUAAAAAUGGAGGGGGCGG is higher in self-cleavage: 0.172 for the first, 0.409 for the second.

Compared with AACACUGCCAAUGCUGGUCCCAAGCCCGGAUGAAAGUGGAGGGGGCGG, AACACUGCCAAUGCUCGUCCCAAGCCCGGAUAAAAGUGGAGGGGGCGG is lower in self-cleavage: 0.891 for the first, 0.464 for the second.

Going from AACACUGCCAAUGCUAGUCCCAAGCCCGGAUAAAAGUGGAGGGGGCGG to AACACUGCCAAUGCUUGUCCCAAGCCCGGAUAAAAGUGGAGGGGGCGG, the self-cleavage falls from 0.457 to 0.31.

First: AACACUGCCAAUGCCAGUCCCAAGCCCGAAUAAAAGUGGAGGGGGCGG
Second: AACACUGCCAAUGCUGGUCCCAAGCCCGCAUAAAAGUGGAGGGGGCGG
The self-cleavage of the first is higher: 0.639 for the first, 0.194 for the second.

Going from AACACUGCCAAUGCUGGUCCCAAGCCCGAAUAAAAGUGGAGGGGGCGG to AACACUGCCAAUGCUGGUCCCAAGCCCGUAUAAAAGUGGAGGGGGCGG, the self-cleavage falls from 0.927 to 0.652.

Compared with AACACUGCCAAUGCUGGUCCCAAGCCCGGAUAAAAGUGGAGGGGGCCG, AACACUGCCAAUGCUGGUCCCAAGCCCGGAUAACAGUGGAGGGGGCGG is lower in self-cleavage: 0.415 for the first, 0.205 for the second.

Compared with AACACUGCCAAUGCUGGUCCCAAGCCCGGAUAAUAGUGGAGGGGGCGG, AACACUGCCAAUGCCCGUCCCAAGCCCGGAUCAAAGUGGAGGGGGCGG is lower in self-cleavage: 0.68 for the first, 0.536 for the second.

Compared with AACACUGCCAAUGCCCGUCCCAAGCCCGGAUUAAAGUGGAGGGGGCGG, AACACUGCCAAUGCCCGUCCCAAGCCCGGAUGAAAGUGGAGGGGGCGG is higher in self-cleavage: 0.456 for the first, 0.518 for the second.

Compared with AACACUGCCAAUGCUGGUCCCAAGCCCGGAUAAAAGUGGAGAGGGCGG, AACACUGCCAAUGCUGGUCCCAAGCCCGGAUAAAAGUGGAGUGGGCGG is higher in self-cleavage: 0.204 for the first, 0.235 for the second.

First: AACACUGCCAAUGCUGGUCCCAAGCCCGGAUAAAAGUGGAGCGGGCGG
Second: AACACUGCCAAUGCCAGUCCCAAGCCCGGAUAAAAGUGCAGGGGGCGG
The self-cleavage of the first is higher: 0.296 for the first, 0.141 for the second.

Going from AACACUGCCAAUGCCAGUCCCAAGCCCGGAUAAAAGUGAAGGGGGCGG to AACACUGCCAAUGCCCGUCCCAAGCCCGGAUAGAAGUGGAGGGGGCGG, the self-cleavage rises from 0.185 to 0.403.

Going from AACACUGCCAAUGCCCGUCCCAAGCCCGGAUAAACGUGGAGGGGGCGG to AACACUGCCAAUGCCAGUCCCAAGCCCGGUUAAAAGUGGAGGGGGCGG, the self-cleavage rises from 0.394 to 1.04.

Going from AACACUGCCAAUGCUGGUCCCAAGCCCGGAUAAAAGUCGAGGGGGCGG to AACACUGCCAAUGCCAGUCCCAAGCCCGGAUAAAAGUGGAGGGGGCGG, the self-cleavage rises from 0.801 to 1.03.

Going from AACACUGCCAAUGCCCGUCCCAAGCCCGGAUAAAAGUGGAGGGGGCGG to AACACUGCCAAUGCUGGUCCCAAGCCCGGAUAAAAGUGGAGGGGGCGA, the self-cleavage rises from 0.663 to 0.765.

First: AACACUGCCAAUGCUGGUCCCAAGCCCGGAUAAAAGUGGAGGGGGCGU
Second: AACACUGCCAAUGCUGGUCCCAAGCACGGAUAAAAGUGGAGGGGGCGG
The self-cleavage of the first is higher: 0.987 for the first, 0.126 for the second.

First: AACACUGCCAAUGCCAGUCCCAAGCCGGGAUAAAAGUGGAGGGGGCGG
Second: AACACUGCCAAUGCCAGUCCCAAGCCCGGAUAAAAGGGGAGGGGGCGG
The self-cleavage of the first is higher: 0.745 for the first, 0.195 for the second.

Going from AACACUGCCAAUGCCAUUCCCAAGCCCGGAUAAAAGUGGAGGGGGCGG to AACACUGCCAAUGCUGGUCCCAAGCCCGGAGAAAAGUGGAGGGGGCGG, the self-cleavage rises from 0.232 to 0.782.

Compared with AACACUGCCAAUGCUGGUCCCAAGCCCGGACAAAAGUGGAGGGGGCGG, AACACUGCCAAUGCCAGUCCCAAGCCCGGAUAAAAGUGGAGGGGGCGC is higher in self-cleavage: 0.923 for the first, 1.08 for the second.

Going from AACACUGCCAAUGCCAGUCCCAAGCCCGGAUAAAAGUGGAGGGGGCGU to AACACUGCCAAUGCCAGUCCCAAGCCCGGAUAAAAGUGGAGGGGGCGA, the self-cleavage rises from 0.917 to 0.979.

Going from AACACUGCCAAUGCCAGGCCCAAGCCCGGAUAAAAGUGGAGGGGGCGG to AACACUGCCAAUGCUGGUCCCAAACCCGGAUAAAAGUGGAGGGGGCGG, the self-cleavage rises from 0.0863 to 0.1.

Going from AACACUGCCAAUGCUGGUCCCAACCCCGGAUAAAAGUGGAGGGGGCGG to AACACUGCCAAUGCCAGUCCCAACCCCGGAUAAAAGUGGAGGGGGCGG, the self-cleavage falls from 0.115 to 0.0993.

From the RNAGym collection of RNA variant scans (doi:10.7554/elife.80360)
